Measurements taken from article PMC10419011, “Dynamics of the Second Extracellular Loop Control Transducer Coupling of Peptide-Activated GPCRs” (International Journal of Molecular Sciences, 2023).

Target: T1, K^18-TAMRA-NPY (5/6-tetramethylrhodamine (TAMRA) on the side chain of Lys18)
T1 construct: neuropeptide Y (NPY) with a TAMRA-carrying lysine at position 18; also called Tam-labeled NPY; TAMRA-labeled peptide ligand; source: synthetic peptide (Fmoc/tBu solid phase, RP-HPLC, purity > 95%)
Assay: fluorescence polarisation; various concentrations of receptor in small DMPC/DHPC bicelles with 50 nM (K^18-TAMRA)-NPY, 1 h at room temperature, measured at 20 °C; sigmoidal dose-response fit
Details: both partners purified

B1: Y2R_A202^45.49C,Δ6Cys-IAP (A202^45.49-P1) (receptor)
chain: MGPIGAEADENQTVEEMKVEQYGPQTTPRGELVPDPEPELIDSTKLIEVQVVLILAYASIILLGVIGNSLVIHVVIKFKSMRTVTNFFIANLAVADLLVNTLALPFTLTYTLMGEWKMGPVLCHLVPYAQGLAVQVSTITLTVIALDRHRAIVYHLESKISKRISFLIIGLAWGISALLASPLAIFREYSLIEIIPDFEIVCCTEKWPGEEKSIYGTVYSLSSLLILYVLPLGIISFSYTRIWSKLKNHVSPGAANDHYHQRRQKTTKMLVSVVVVFAVSWLPLHAFQLAVDIDSQVLDLKEYKLIFTVFHIIAMASTFANPLLYGWMNSNYRKAFLSAFRSEQRLDAIHSEVSVTFKAKKNLEVRKNSGPNDSFTEATNV
modifications: cysteine at position 202 labelled with 3-(2-iodacetamido)-proxyl (IAP), thioether-bound spin label side chain P1
Kd: 81.8 ± 5.1 nM
